From patent US20070249530A1 (Genentech, published 2007)

B1: BCMA-Fc (Fc fusion, not shown: a dimerising Fc or GST)
chain: AGQCSQNEYFDSLLHACIPCQLRCSSNTPPLTCQRYCNASVTNSVKG
notes: also called BCMA(wt)-Fc; BCMA-Fc wt
B2: BCMA ECD purified from baculovirus expression (receptor, not shown: small tags and cut ends)
chain: MAGQCSQNEYFDSLLHACIPCQLRCSSNTPPLTCQRYCNASVTNSVKGTN
notes: also called BCMA(baculovirus); baculovirus BCMA

Legend:
[1] = target: T1, Human BAFF (residues 82-285) (human, UniProt Q9Y275 82-285); experiment: competitive displacement ELISA; immobilized BAFF, tracer biotinylated mini-BR3; bivalent Fc construct (avidity); competition ELISA
T1 construct: also called BAFF82-285
T1 sequence (Q9Y275 82-285): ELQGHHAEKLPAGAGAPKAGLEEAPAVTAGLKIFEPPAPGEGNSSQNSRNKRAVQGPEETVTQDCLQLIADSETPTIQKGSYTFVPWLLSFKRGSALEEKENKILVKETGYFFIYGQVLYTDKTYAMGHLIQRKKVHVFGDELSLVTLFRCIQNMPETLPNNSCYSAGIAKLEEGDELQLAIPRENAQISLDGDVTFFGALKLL

[2] = target: T1, Human BAFF (residues 82-285); experiment: SPR (BIAcore 3000), BAFF immobilized, 1:1 model
Procedure: CM5 chips from BIAcore were docked according to manufacturer instructions. Then, BIAcore system was primed with 0.2 μm filtered buffer containing 10 mM Hepes pH 7.2, 150mM NaCl, 0.005% Tween20. After buffer priming, the flow cells were normalized with 70% glycerol. Each flow cell surface was activated individually in preparation for linkage of the ligand to the chip with a 1:1 mixture of EDC(N-ethyl-N′-(3-dimethyl aminopropyl)-carbodiimide hydrochloride) and NHS (N-hydroxysuccinimide). […] Generally, the ligand to be immobilized (30 μg/ml in 10 mM NaOAc, pH 5 buffer) was injected into the system at 40 μl/min. Once approximately 400 RU was generated, the flow cell was blocked with ethanolamine. […] The system was then primed again.
The ligand-receptor complex was allowed to dissociate by washing the flow cell at 30 μl/min for 600 seconds. Alternatively, if several binding measurements over the same flow cell were to be performed, the ligand-receptor complex was allowed to dissociate by washing the flow cell at 30 μl/min for 900 seconds. Sensorgrams were recorded for each binding assay. A 1:1 Langmuir binding equation was used to simultaneously fit the association and dissociation rates of the ligand-analyte interactions. kₐ, kd, KD were calculated using curve fit analysis software provided with the BiaCore instrument

[3] = target: T1, Human BAFF (residues 82-285); experiment: competitive displacement ELISA on immobilized BAFF; unbiotinylated BCMA-Fc varied, tracer biotinylated miniBR3
Procedure: The plate washed with PBS and blocked for 1 hr with 200 μl of 0.2% BSA in PBS at room temperature. […] The plate washed with PBS/Tween-20 and incubated with 100 μl/well of 0.1 U/ml Streptavidin-POD (Boehringer Mannheim) for 15 minutes at room temperature. After washing the plate with PBS/0.05% Tween-20 followed by a final wash in PBS, the plate was incubated for 5 min with 100 μl/well PBS substrate solution containing 0.8 mg/ml OPD (Sigma) and 0.01% H₂O₂.

[4] = target: T1, Human BAFF (residues 82-285); experiment: SPR (BIAcore 3000), BAFF immobilized

Binder | IC50 [1] | Kd [2] | koff [2] | kon [2] | IC50 (read off the curve) [3] | binding result [4]
B1 | 13 nM | 4.9 nM | 0.0034 s⁻¹ | 680000 M⁻¹ s⁻¹ | ~9 nM | 
B2 |  |  |  |  |  | no binding (tested: analyte 6.25 nM to 200 nM)
